Data on seven molecules can be found in patent US20110135573A1 (DYAX, published 2011).

One test addresses MMP-10 (Biomol SE-329) (UniProt P09238 99-265, limits assumed). Description: cell-based or functional assay.
For another test, the target named is MMP-13 (Biomol SE-246) (UniProt P45452 104-274). Kind of test: cell-based or functional assay.
A further test concerns the target MMP-14 (Biomol SE-259) (UniProt P50281 112-284, limits assumed). Description: cell-based or functional assay.
The target of test [1] is MMP-3 (R&D Systems #513-MP) (UniProt P08254 18-477, limits assumed). Kind of test: cell-based or functional assay.
For test [2], the target named is MMP-15 (Calbiochem #475938) (UniProt P51511 132-304, limits assumed). Description: cell-based or functional assay.
For test [3], the target named is MMP-16 (Calbiochem #475939) (UniProt P51512 120-292, limits assumed). Description: cell-based or functional assay.
A further test concerns the target MMP-12 (Biomol SE-138) (UniProt P39900 106-263, limits assumed). Kind of test: cell-based or functional assay.
The next test deals with TACE (R&D Systems) (UniProt P78536 215-671, limits assumed). Kind of test: cell-based or functional assay.
The next test concerns the target T1, MMP-7 (Biomol SE-181) (UniProt P09237 95-267).
T1 sequence (looked up): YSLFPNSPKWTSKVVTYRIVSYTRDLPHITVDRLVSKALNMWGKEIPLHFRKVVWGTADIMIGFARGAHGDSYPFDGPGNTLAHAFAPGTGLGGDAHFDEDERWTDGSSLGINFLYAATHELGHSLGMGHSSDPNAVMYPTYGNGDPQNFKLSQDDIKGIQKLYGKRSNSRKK
Description: cell-based or functional assay.

A further test deals with MMP-8 (Biomol SE-255) (UniProt P22894 100-262, limits assumed). Description: cell-based or functional assay.
A further test addresses T2, MMP-1 (Biomol SE-180) (UniProt P03956 100-269, limits assumed).
T2 sequence (looked up): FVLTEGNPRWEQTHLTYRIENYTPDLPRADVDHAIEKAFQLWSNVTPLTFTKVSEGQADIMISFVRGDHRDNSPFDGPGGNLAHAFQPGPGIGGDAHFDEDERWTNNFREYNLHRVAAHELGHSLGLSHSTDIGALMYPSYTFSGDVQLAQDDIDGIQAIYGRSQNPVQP
Kind of test: cell-based or functional assay.

Test [4] addresses T3, Human MMP-9 catalytic domain (BIOMOL, SE-244) (human, UniProt P14780 107-457, limits assumed).
T3 construct: domain: catalytic domain; also called Cat-huMMP-9; cat-huMMP-9
Description: Ki,app, enzyme inhibition assay (fluorogenic peptide substrate), small-scale sFab.

Test [5] addresses T4, human MMP-2 (Biomol #SE-237) (human, UniProt P08253 110-452, limits assumed).
T4 construct: also called hMMP-2
Kind of test: Ki,app, enzyme inhibition assay (fluorogenic peptide substrate), medium-scale sFab.

Test [6] deals with T5, Mouse MMP-9 (R&D, 909-MM), APMA-activated (mouse, UniProt P41245 108-730, limits assumed).
T5 construct: also called mMMP-9; mouse MMP-9 (R&D Systems #909-MM-010)
The test is described as above.

Test [7] has as its target T3, Human MMP-9 catalytic domain (BIOMOL, …). The test is described as above.
In test [8] the target is T6, MMP-26 (Dyax prep #020209) (UniProt Q9NRE1 90-261, limits assumed).
T6 sequence (looked up): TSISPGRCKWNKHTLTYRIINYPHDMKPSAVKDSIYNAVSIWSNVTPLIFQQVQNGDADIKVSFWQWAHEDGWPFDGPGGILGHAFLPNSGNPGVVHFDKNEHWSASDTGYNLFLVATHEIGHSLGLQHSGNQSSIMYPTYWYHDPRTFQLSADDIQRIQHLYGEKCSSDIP
Description: cell-based or functional assay.

Test [9] deals with T4, human MMP-2 (Biomol #SE-237). Kind of test: Ki,app, enzyme inhibition assay (fluorogenic peptide substrate), IgG.
The target of test [10] is T5, Mouse MMP-9 (R&D, 909-MM), …. The description is as above.
The target in test [11] is T3, Human MMP-9 catalytic domain (BIOMOL, …). The test is described as above.
Test [12] concerns the target T7, human TIMP-1 (R&D, 970-TM) (human, UniProt P01033 24-207).
T7 construct: also called huTIMP-1; h-TIMP-1
Description: SPR (Biacore 3000), antibody amine-coupled (direct capture). As for the experimental part:
(§1) Experiments were performed at 25° C. with the help of a Biacore 3000 instrument. The MMP-9 binding protein (M0166F10) and the M0237-D02 antibody were coated to a CM5 chip either via standard amine coupling or using an anti-Fc antibody surface. Then either the active, human MMP-9 catalytic domain (BIOMOL, SE-244), the human pro-MMP-9 (R&D, 911-MP), the human TIMP-1 (R&D, 970-TM) or a h-MMP-9/h-TIMP-1 complex were flowed over the antibody surfaces, and binding was recorded.
(§2) It was shown that the human MMP-9 catalytic domain binds to M0166-F10, whether this antibody is directly captured via amine coupling or captured with an anti-Fc antibody surface.
In general terms: In SPR one partner is held on a chip, and binding of the other changes the refractive index at the surface.

The target of a further test is T8, h-MMP-9/h-TIMP-1 complex (human, UniProt P14780 107-457; P01033 24-207, limits assumed).
T8 construct: Preformed non-covalent complex flowed over the antibody surfaces; also called huTIMP-1/cat-huMMP-9; h-TIMP-1/h-MMP-9 complex
The description is as above. The procedure:
as §1, §2

Test [13] deals with T9, human pro-MMP-9 (R&D, 911-MP) (human, UniProt P14780 20-707).
T9 construct: Pro-enzyme; also called Pro-huMMP-9
Described as above. As for the experimental part:
as §1, §2

In a further test the target is MMP-9 (PMA-activated) (Homo sapiens (Human), UniProt P14780 107-707, Biotinylated for the phage selection; the biotin sites are not stated and the letters do not carry them.). Description: apparent KD; method not stated.

Bounds are passed on as bounds.

T3 sequence (P14780 107-457 limits assumed): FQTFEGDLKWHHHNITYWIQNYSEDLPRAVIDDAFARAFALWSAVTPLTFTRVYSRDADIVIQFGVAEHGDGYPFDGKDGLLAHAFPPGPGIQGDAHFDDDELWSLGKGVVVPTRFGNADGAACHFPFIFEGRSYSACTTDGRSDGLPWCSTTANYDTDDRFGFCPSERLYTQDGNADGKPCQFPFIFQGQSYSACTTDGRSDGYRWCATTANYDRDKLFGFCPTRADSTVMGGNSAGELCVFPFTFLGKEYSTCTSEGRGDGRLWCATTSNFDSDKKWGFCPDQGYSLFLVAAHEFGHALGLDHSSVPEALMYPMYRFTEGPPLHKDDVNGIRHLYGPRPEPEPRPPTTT
T4 sequence (P08253 110-452 limits assumed): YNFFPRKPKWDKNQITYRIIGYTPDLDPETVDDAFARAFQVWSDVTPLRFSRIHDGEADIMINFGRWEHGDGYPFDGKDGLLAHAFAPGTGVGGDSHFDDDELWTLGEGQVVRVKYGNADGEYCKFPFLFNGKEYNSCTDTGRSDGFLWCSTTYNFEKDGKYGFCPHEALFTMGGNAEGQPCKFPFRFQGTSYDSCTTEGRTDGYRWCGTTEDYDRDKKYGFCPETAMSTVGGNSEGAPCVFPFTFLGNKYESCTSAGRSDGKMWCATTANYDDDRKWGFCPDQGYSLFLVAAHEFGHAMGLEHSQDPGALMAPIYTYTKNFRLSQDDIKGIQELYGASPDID
Sequence of MMP-3 (R&D Systems #513-MP) (P08254 18-477 limits assumed): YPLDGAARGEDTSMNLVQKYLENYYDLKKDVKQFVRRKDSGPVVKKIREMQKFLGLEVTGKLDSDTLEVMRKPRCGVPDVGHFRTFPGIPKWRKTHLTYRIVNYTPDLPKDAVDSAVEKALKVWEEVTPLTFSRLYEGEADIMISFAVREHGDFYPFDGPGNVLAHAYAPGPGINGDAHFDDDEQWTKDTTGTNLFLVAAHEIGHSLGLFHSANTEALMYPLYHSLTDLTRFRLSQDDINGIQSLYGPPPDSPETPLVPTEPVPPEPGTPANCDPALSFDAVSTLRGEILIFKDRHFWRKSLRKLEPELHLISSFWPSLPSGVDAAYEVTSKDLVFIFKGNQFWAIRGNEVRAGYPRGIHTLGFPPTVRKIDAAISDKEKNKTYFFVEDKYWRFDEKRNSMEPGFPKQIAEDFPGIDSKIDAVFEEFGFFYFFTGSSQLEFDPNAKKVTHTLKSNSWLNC
Sequence of MMP-12 (Biomol SE-138) (P39900 106-263 limits assumed): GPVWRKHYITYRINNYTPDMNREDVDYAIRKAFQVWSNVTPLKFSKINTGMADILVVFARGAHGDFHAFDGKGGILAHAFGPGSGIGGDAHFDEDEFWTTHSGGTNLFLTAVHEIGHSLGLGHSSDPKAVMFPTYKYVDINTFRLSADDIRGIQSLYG
Sequence of MMP-8 (Biomol SE-255) (P22894 100-262 limits assumed): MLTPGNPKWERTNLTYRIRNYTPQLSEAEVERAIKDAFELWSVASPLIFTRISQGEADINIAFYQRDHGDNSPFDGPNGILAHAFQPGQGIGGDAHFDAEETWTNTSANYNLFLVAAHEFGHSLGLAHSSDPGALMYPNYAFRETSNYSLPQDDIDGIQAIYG
Sequence of MMP-16 (Calbiochem #475939) (P51512 120-292 limits assumed): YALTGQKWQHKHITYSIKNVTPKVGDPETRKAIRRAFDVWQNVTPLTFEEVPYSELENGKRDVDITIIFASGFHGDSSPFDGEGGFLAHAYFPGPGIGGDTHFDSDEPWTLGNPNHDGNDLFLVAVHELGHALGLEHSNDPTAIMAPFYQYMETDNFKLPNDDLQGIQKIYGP
Sequence of TACE (R&D Systems) (P78536 215-671 limits assumed): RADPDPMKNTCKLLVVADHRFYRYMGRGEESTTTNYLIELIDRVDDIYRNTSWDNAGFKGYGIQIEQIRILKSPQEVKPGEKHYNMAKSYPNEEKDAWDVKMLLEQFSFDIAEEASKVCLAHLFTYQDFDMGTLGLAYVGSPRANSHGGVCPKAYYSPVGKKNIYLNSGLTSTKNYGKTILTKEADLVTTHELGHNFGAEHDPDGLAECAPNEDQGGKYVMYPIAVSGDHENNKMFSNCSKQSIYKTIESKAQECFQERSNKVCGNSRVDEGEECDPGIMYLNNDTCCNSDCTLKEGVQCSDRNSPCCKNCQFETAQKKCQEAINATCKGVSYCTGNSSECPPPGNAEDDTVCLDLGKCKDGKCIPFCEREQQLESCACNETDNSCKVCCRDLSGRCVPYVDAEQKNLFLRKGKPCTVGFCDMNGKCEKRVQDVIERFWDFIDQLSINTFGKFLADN
Sequence of MMP-10 (Biomol SE-329) (P09238 99-265 limits assumed): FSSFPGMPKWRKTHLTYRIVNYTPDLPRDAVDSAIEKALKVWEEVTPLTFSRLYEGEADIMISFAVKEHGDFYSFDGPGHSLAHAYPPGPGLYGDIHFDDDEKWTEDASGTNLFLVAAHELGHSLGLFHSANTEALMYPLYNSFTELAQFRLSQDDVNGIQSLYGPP
T5 sequence (P41245 108-730 limits assumed): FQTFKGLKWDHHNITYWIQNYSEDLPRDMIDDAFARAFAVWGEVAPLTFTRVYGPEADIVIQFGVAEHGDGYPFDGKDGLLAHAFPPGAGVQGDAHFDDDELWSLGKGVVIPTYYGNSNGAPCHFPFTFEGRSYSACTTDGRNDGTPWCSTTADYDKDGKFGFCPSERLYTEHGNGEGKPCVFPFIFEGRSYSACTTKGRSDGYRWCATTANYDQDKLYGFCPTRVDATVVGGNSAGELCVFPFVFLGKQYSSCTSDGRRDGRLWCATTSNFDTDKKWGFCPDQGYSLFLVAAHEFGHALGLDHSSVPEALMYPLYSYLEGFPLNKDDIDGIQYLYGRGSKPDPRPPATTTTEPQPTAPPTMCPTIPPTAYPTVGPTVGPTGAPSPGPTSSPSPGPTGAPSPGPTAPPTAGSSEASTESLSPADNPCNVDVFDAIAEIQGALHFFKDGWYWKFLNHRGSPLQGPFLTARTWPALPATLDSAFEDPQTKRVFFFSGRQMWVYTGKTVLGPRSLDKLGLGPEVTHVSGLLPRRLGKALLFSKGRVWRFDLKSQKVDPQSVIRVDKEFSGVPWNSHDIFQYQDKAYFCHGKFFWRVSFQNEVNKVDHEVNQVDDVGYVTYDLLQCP
Sequence of MMP-15 (Calbiochem #475938) (P51511 132-304 limits assumed): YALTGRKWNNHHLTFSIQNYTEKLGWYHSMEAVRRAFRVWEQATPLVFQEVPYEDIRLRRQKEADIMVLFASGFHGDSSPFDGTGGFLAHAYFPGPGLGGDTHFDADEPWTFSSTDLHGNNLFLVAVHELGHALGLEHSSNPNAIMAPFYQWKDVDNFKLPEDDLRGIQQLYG
Sequence of MMP-9 (PMA-activated) (P14780 107-707 limits assumed, form in doubt): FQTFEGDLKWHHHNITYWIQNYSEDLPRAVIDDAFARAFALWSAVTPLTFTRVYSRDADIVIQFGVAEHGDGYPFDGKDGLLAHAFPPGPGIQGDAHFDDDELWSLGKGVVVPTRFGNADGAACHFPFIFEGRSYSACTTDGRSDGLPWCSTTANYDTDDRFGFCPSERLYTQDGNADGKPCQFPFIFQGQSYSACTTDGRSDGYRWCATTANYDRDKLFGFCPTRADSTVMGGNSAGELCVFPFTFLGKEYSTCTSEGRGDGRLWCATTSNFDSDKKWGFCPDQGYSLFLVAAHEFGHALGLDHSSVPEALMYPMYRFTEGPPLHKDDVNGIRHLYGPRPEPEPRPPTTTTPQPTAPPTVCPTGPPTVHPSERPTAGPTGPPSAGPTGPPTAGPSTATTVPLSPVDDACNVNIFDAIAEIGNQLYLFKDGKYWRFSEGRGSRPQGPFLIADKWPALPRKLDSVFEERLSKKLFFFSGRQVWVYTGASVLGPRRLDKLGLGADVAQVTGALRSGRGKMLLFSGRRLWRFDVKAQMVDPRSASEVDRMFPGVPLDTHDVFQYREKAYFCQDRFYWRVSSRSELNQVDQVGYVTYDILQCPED
T8 sequence (P14780 107-457 limits assumed, chain 1 of 2): as the sequence (P14780 107-457 limits assumed) above
T8 sequence (P01033 24-207 limits assumed, chain 2 of 2): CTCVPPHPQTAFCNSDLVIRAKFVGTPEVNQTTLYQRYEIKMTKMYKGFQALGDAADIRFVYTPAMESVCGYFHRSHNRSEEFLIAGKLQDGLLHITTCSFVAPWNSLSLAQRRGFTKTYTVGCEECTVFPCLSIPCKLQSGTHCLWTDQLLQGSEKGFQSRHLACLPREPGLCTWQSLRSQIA
T9 sequence (P14780 20-707): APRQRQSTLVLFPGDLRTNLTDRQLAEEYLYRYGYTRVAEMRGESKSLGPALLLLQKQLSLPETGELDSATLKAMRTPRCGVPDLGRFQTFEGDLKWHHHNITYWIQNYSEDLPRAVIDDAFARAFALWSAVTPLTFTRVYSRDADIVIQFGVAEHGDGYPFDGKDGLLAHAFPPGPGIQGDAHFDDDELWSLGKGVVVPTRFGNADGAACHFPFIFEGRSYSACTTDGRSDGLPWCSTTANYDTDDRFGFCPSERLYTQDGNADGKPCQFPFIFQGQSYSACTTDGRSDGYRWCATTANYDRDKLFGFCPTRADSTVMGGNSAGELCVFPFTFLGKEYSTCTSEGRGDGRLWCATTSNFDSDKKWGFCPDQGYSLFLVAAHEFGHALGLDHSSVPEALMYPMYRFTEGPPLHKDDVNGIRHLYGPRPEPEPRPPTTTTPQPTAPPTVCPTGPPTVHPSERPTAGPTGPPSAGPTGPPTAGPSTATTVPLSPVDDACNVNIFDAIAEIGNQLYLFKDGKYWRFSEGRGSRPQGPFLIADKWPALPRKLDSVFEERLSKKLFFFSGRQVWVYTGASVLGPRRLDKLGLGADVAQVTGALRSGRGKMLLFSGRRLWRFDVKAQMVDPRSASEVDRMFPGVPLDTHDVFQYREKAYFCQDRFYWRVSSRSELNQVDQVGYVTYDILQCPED
T7 sequence (P01033 24-207 limits assumed): as the sequence (P01033 24-207 limits assumed, chain 2 of 2) above

B1: M0279-A03 (Fab, V domains shown)
VH: EVQLLESGGGLVQPGGSLRLSCAASGFTFSQYPMWWVRQAPGKGLEWVSYIVPSGGRTYYADSVKGRFTISRDNSKNTLYLQMNSLRAEDTAVYYCAKDRAYGDYVGWNGFDYWGQGTLVTVSS
VL: DIQMTQSPATLSVSPGERVTLSCKASHSISRNLAWYQQKPGQAPRLLIFGASTRATGIPARFSGSGSGTEFTLTISSLEAEDFAVYYCQQRRNWPVTFGPGTKLDFK
notes: sFab; variable domains only; also called M279-A03; M279-A03 sFab
On to B1, for which the “IC50 (enzyme inhibition)” value (with MMP-10 (Biomol SE-329); in the test with MMP-13 (Biomol SE-246); with MMP-14 (Biomol SE-259); in test [1]; in test [2]; in [3]) was greater than 500 nM in each case. Further, the “IC50 (enzyme inhibition)” value with MMP-12 (Biomol SE-138), with TACE (R&D Systems), in the test with MMP-7 (Biomol SE-181), with MMP-8 (Biomol SE-255) and with MMP-1 (Biomol SE-180) was greater than 500 nM in each case. Moreover, the Ki was 2.2 nM in [4], greater than 430 nM in test [5], 24 nM in [6] and 1.6 nM in test [7].

B2: M0279-B02 (Fab, V domains shown)
VH: EVQLLESGGGLVQPGGSLRLSCAASGFTFSQYPMWWVRQAPGKGLEWVSYIVPSGGRTYYADSVKGRFTISRDNSKNTLYLQMNSLRAEDTAVYYCAKDRAYGDYVGWNGFDYWGQGTLVTVSS
VL: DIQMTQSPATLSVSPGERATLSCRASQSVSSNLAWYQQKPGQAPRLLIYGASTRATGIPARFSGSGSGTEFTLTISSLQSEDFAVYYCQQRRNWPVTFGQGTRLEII
notes: sFab; variable domains only; also called M279-B02
B2: the “IC50 (enzyme inhibition)” value (in the test with MMP-10 (Biomol SE-329); with MMP-13 (Biomol SE-246); in test [8]; with MMP-14 (Biomol SE-259); in test [1]; in test [2]) was greater than 1000 nM throughout. Also, the “IC50 (enzyme inhibition)” value (in test [3]; with MMP-12 (Biomol SE-138); with TACE (R&D Systems); in the test with MMP-7 (Biomol SE-181); with MMP-8 (Biomol SE-255); in the test with MMP-1 (Biomol SE-180)) was greater than 1000 nM throughout. Besides, the Ki is 2.6 nM in test [4], greater than 1000 nM in test [5], 64 nM in test [6] and 6.5 nM in [7].

B3: X0106-A01 (antibody, V domains shown)
VH: EVQLLESGGGLVQPGGSLRLSCAASGFTFSHYDMWWVRQAPGKGLEWVSVIYSSGGPTFYADSVKGRFTISRDNSKNTLYLQMNSLRAEDTAVYYCAKDRAYGDYVGWNGFDYWGQGTLVTVSS
VL: EIVLTQSPATLSLSPGERATLSCRASQSISSFLAWYQQKPGQAPRLLIYDASYRATGIPARFSGSGSGTDFTLTISSLEPEDFAVYYCQQRGNWPITFGQGTRLEIK
notes: Produced and tested as IgG1; germlined, optimized version of M0256-D11; also called X106-A01; X106-A01 IgG
Turning to B3, the “IC50 (enzyme inhibition)” value is greater than 1000 nM in the test with MMP-10 (Biomol SE-329); greater than 1000 nM with MMP-13 (Biomol SE-246); 12 nM in test [8]; greater than 1000 nM with MMP-14 (Biomol SE-259); greater than 1000 nM in test [1]; greater than 1000 nM in test [2]. In addition, the “IC50 (enzyme inhibition)” value was greater than 1000 nM in test [3]; greater than 1000 nM in the test with MMP-12 (Biomol SE-138); greater than 1000 nM with TACE (R&D Systems); 900 nM with MMP-7 (Biomol SE-181); greater than 1000 nM in the test with MMP-8 (Biomol SE-255); greater than 1000 nM in the test with MMP-1 (Biomol SE-180). Moreover, the Ki in test [9] turned out to be 0.34 nM; in test [10], 0.25 nM; in test [11], 0.1 nM.

B4: M0288-C08 (Fab, V domains shown)
VH: EVQLLESGGGLVQPGGSLRLSCAASGFTFSQYPMWWVRQAPGKGLEWVSYIVPSGGRTYYADSVKGRFTISRDNSKNTLYLQMNSLRAEDTAVYYCAKDRAYGDYVGWNGFDYWGQGTLVTVSS
VL: DIQMTQSPGTLSVSPGERVTLSCRASQSVSSYLAWYQQKPGQAPRLLIYGASTRVTGIPARFSGSGSGTEFTLTISSLQSEDFAVYYCQQRSSWPITFGQGTRLEIK
notes: sFab; variable domains only; also called M288-C08
As to B4, the Ki in [4] is 2 nM; in test [5], greater than 1000 nM; in test [6], 13 nM; in test [7], 1.8 nM.

B5: 539A-M0166-F10 (antibody, V domains shown)
VH: EVQLLESGGGLVQPGGSLRLSCAASGFTFSPYLMNWVRQAPGKGLEWVSSIYSSGGGTGYADSVKGRFTISRDNSKNTLYLQMNSLRAEDTAVYYCARIYHSSSGPFYGMDVWGQGTTVTVSS
VL: QSELTQPPSASAAPGQRVTISCSGSSSNIGSNTVTWYQKLPGTAPKLLIYNNYERPSGVPARFSGSKSGTSASLAISGLQSEDEADYYCATWDDSLIANYVFGSGTKVTVLG
notes: also called DL15
For B5, the binding result (in test [12]; with h-MMP-9/h-TIMP-1 complex; in test [13]) was “no binding” throughout.

B6: M0076-D03 (Fab, V domains shown)
VH: EVQLLESGGGLVQPGGSLRLSCAASGFTFSLYRMNWVRQAPGKGLEWVSYIGSSGGATAYADSVKGRFTISRDNSKNTLYLQMNSLRAEDTAVYYCARGAWYLDSWGQGTLVTVSS
VL: DIQMTQSPSSLSASVGDRVTITCRASQGIRNDLDWYQQKPGTAPKRLIYSASNLQSGVPSRFSGSGSGTEFTLTISNLQPEDLATYFCLQHNSFPLTFGQGTKVEIK
notes: variable domains only
For B6, in the test with MMP-9 (PMA-activated), the Kd is 5.9 nM.

B7: M0078-G07 (Fab, V domains shown)
VH: EVQLLESGGGLVQPGGSLRLSCAASGFTFSSYTMEWVRQAPGKGLEWVSWISPSGGYTFYADSVKGRFTISRDNSKNTLYLQMNSLRAEDTALYYCARGYSYGSIDLWGRGTLVTVSS
VL: DIQMTQSPGTLSVSPGERATLSCRASQSVSSDLAWYQHKPGQAPRLLIYGVSTKATGVPARFSGSGSGTEFTLTISSLQSEDLAVYYCQQYHNWPPLTFGGGTKVEIK
notes: variable domains only; also called Fab M0078-G07
Consider B7, for which, in the test with MMP-9 (PMA-activated), the Kd turned out to be 3.1 nM.
